Article PMC8699594, “Improving the Substrate Affinity and Catalytic Efficiency of β-Glucosidase Bgl3A from Talaromyces leycettanus JCM12802 by Rational Design” (Biomolecules, 2021)

What was measured:
[1] = molecular target: T1, Bgl3A (Evansstolkia leycettana, UniProt A0A1B0VFN7); assay: glucose release (GOD-POD), Michaelis-Menten fit; assay type: biochemical; details: read-out: Cellobiose / Km; 75 °C, pH 4.5, Na2HPO4-citric acid buffer
T1 construct: no tag mentioned

[2] = molecular target: T1, Bgl3A; assay: p-nitrophenol release at […] nm, Michaelis-Menten fit; assay type: biochemical; details: read-out: pNPG / Km; 75 °C, pH 4.5, Na2HPO4-citric acid buffer
[3] = substrate: O=[N+]([O-])c1ccc(O[C@@H]2O[C@H](CO)[C@@H](O)[C@H](O)[C@H]2O)cc1; assay: purified protein; details: 75 °C, pH 4.5, Na2HPO4-citric acid buffer

T1 sequence (A0A1B0VFN7 entry or part of it): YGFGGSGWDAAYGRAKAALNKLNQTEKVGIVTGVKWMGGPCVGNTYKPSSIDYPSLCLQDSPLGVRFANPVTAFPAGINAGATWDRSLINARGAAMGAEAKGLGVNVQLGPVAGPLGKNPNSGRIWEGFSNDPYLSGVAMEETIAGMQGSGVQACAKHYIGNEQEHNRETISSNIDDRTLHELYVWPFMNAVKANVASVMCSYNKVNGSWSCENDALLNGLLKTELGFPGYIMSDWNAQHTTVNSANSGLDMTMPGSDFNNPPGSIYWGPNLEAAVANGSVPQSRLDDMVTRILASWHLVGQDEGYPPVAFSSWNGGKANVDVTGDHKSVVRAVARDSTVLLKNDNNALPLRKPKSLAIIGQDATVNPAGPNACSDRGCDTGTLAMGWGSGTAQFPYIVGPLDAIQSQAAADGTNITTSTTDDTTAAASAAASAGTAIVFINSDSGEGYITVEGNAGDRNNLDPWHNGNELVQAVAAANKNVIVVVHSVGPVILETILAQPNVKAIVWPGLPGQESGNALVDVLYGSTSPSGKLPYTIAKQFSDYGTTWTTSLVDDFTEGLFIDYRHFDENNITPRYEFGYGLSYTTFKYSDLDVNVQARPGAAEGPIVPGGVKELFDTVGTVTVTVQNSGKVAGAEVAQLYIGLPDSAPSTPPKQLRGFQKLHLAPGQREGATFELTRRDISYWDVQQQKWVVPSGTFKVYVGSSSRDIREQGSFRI

Molecule	Km [1]	Km [2]	Km [3]	kcat [3]	kcat/Km [3]
OC[C@H]1O[C@@H](O[C@H]2[C@H](O)[C@@H](O)C(O)O[C@@H]2CO)[C@H](O)[C@@H](O)[C@@H]1O (some centres unmarked) [cellobiose]	10400 ± 400 µM				
O=[N+]([O-])c1ccc(O[C@@H]2O[C@H](CO)[C@@H](O)[C@H](O)[C@H]2O)cc1 [4-nitrophenyl β-D-glucopyranoside]		180 ± 30 µM			
Bgl3A (Evansstolkia leycettana; F86Y) (protein) YGFGGSGWDAAYGRAKAALNKLNQTEKVGIVTGVKWMGGPCVGNTYKPSSIDYPSLCLQDSPLGVRYANPVTAFPAGINAGATWDRSLINARGAAMGAEAKGLGVNVQLGPVAGPLGKNPNSGRIWEGFSNDPYLSGVAMEETIAGMQGSGVQACAKHYIGNEQEHNRETISSNIDDRTLHELYVWPFMNAVKANVASVMCSYNKVNGSWSCENDALLNGLLKTELGFPGYIMSDWNAQHTTVNSANSGLDMTMPGSDFNNPPGSIYWGPNLEAAVANGSVPQSRLDDMVTRILASWHLVGQDEGYPPVAFSSWNGGKANVDVTGDHKSVVRAVARDSTVLLKNDNNALPLRKPKSLAIIGQDATVNPAGPNACSDRGCDTGTLAMGWGSGTAQFPYIVGPLDAIQSQAAADGTNITTSTTDDTTAAASAAASAGTAIVFINSDSGEGYITVEGNAGDRNNLDPWHNGNELVQAVAAANKNVIVVVHSVGPVILETILAQPNVKAIVWPGLPGQESGNALVDVLYGSTSPSGKLPYTIAKQFSDYGTTWTTSLVDDFTEGLFIDYRHFDENNITPRYEFGYGLSYTTFKYSDLDVNVQARPGAAEGPIVPGGVKELFDTVGTVTVTVQNSGKVAGAEVAQLYIGLPDSAPSTPPKQLRGFQKLHLAPGQREGATFELTRRDISYWDVQQQKWVVPSGTFKVYVGSSSRDIREQGSFRI			240 ± 20 µM	1770 s⁻¹	7.45e+06 M⁻¹ s⁻¹
Bgl3A (Evansstolkia leycettana; M56E) (protein) YGFGGSGWDAAYGRAKAALNKLNQTEKVGIVTGVKWEGGPCVGNTYKPSSIDYPSLCLQDSPLGVRFANPVTAFPAGINAGATWDRSLINARGAAMGAEAKGLGVNVQLGPVAGPLGKNPNSGRIWEGFSNDPYLSGVAMEETIAGMQGSGVQACAKHYIGNEQEHNRETISSNIDDRTLHELYVWPFMNAVKANVASVMCSYNKVNGSWSCENDALLNGLLKTELGFPGYIMSDWNAQHTTVNSANSGLDMTMPGSDFNNPPGSIYWGPNLEAAVANGSVPQSRLDDMVTRILASWHLVGQDEGYPPVAFSSWNGGKANVDVTGDHKSVVRAVARDSTVLLKNDNNALPLRKPKSLAIIGQDATVNPAGPNACSDRGCDTGTLAMGWGSGTAQFPYIVGPLDAIQSQAAADGTNITTSTTDDTTAAASAAASAGTAIVFINSDSGEGYITVEGNAGDRNNLDPWHNGNELVQAVAAANKNVIVVVHSVGPVILETILAQPNVKAIVWPGLPGQESGNALVDVLYGSTSPSGKLPYTIAKQFSDYGTTWTTSLVDDFTEGLFIDYRHFDENNITPRYEFGYGLSYTTFKYSDLDVNVQARPGAAEGPIVPGGVKELFDTVGTVTVTVQNSGKVAGAEVAQLYIGLPDSAPSTPPKQLRGFQKLHLAPGQREGATFELTRRDISYWDVQQQKWVVPSGTFKVYVGSSSRDIREQGSFRI			250 ± 30 µM	1800 s⁻¹	7.09e+06 M⁻¹ s⁻¹
Bgl3A (Evansstolkia leycettana; M56N) (protein) YGFGGSGWDAAYGRAKAALNKLNQTEKVGIVTGVKWNGGPCVGNTYKPSSIDYPSLCLQDSPLGVRFANPVTAFPAGINAGATWDRSLINARGAAMGAEAKGLGVNVQLGPVAGPLGKNPNSGRIWEGFSNDPYLSGVAMEETIAGMQGSGVQACAKHYIGNEQEHNRETISSNIDDRTLHELYVWPFMNAVKANVASVMCSYNKVNGSWSCENDALLNGLLKTELGFPGYIMSDWNAQHTTVNSANSGLDMTMPGSDFNNPPGSIYWGPNLEAAVANGSVPQSRLDDMVTRILASWHLVGQDEGYPPVAFSSWNGGKANVDVTGDHKSVVRAVARDSTVLLKNDNNALPLRKPKSLAIIGQDATVNPAGPNACSDRGCDTGTLAMGWGSGTAQFPYIVGPLDAIQSQAAADGTNITTSTTDDTTAAASAAASAGTAIVFINSDSGEGYITVEGNAGDRNNLDPWHNGNELVQAVAAANKNVIVVVHSVGPVILETILAQPNVKAIVWPGLPGQESGNALVDVLYGSTSPSGKLPYTIAKQFSDYGTTWTTSLVDDFTEGLFIDYRHFDENNITPRYEFGYGLSYTTFKYSDLDVNVQARPGAAEGPIVPGGVKELFDTVGTVTVTVQNSGKVAGAEVAQLYIGLPDSAPSTPPKQLRGFQKLHLAPGQREGATFELTRRDISYWDVQQQKWVVPSGTFKVYVGSSSRDIREQGSFRI			590 ± 70 µM	1070 s⁻¹	1.79e+06 M⁻¹ s⁻¹
Bgl3A (Evansstolkia leycettana; E188Q) (protein) YGFGGSGWDAAYGRAKAALNKLNQTEKVGIVTGVKWMGGPCVGNTYKPSSIDYPSLCLQDSPLGVRFANPVTAFPAGINAGATWDRSLINARGAAMGAEAKGLGVNVQLGPVAGPLGKNPNSGRIWEGFSNDPYLSGVAMEETIAGMQGSGVQACAKHYIGNEQEHNRQTISSNIDDRTLHELYVWPFMNAVKANVASVMCSYNKVNGSWSCENDALLNGLLKTELGFPGYIMSDWNAQHTTVNSANSGLDMTMPGSDFNNPPGSIYWGPNLEAAVANGSVPQSRLDDMVTRILASWHLVGQDEGYPPVAFSSWNGGKANVDVTGDHKSVVRAVARDSTVLLKNDNNALPLRKPKSLAIIGQDATVNPAGPNACSDRGCDTGTLAMGWGSGTAQFPYIVGPLDAIQSQAAADGTNITTSTTDDTTAAASAAASAGTAIVFINSDSGEGYITVEGNAGDRNNLDPWHNGNELVQAVAAANKNVIVVVHSVGPVILETILAQPNVKAIVWPGLPGQESGNALVDVLYGSTSPSGKLPYTIAKQFSDYGTTWTTSLVDDFTEGLFIDYRHFDENNITPRYEFGYGLSYTTFKYSDLDVNVQARPGAAEGPIVPGGVKELFDTVGTVTVTVQNSGKVAGAEVAQLYIGLPDSAPSTPPKQLRGFQKLHLAPGQREGATFELTRRDISYWDVQQQKWVVPSGTFKVYVGSSSRDIREQGSFRI			210 ± 30 µM	1740 s⁻¹	8.39e+06 M⁻¹ s⁻¹
